Molecular target: Himar1C9-XTEN-dCas9 (Himar-dCas9) (synthetic fusion (Haematobia irritans …, UniProt Q99ZW2 SEQ:1-1732))
Test: no gRNA; baseline insertion hotspot
Details: tags: C-terminal 6xHis; chain copies: 2 inferred
Procedure: FIG. 2A through FIG. 2C. Himar-dCas9 specificity is dependent on gRNA spacing and target site. (FIG. 2A) Illustration of gRNA strand orientation and spacings to TA insertion site gRNA1 (SEQ ID NO: 53) and gRNA2 (SEQ ID No: 54) and target DNA (SEQ ID No: 55). (FIG. 2B) PCR analysis of transposon-target junctions from in vitro reactions containing 30 nM Himar-dCas9/gRNA complex, 2.27 nM transposon donor DNA, and 2.27 nM target DNA. Reactions (n=3) were run using gRNAs with spacings between 5 and 18 bp from the TA insertion site. Non-targeting gRNA (gRNA_5), no gRNA, and no transposase controls were also performed. Arrowheads indicate expected site-specific PCR products for each gRNA. Error bars indicate standard deviation. (FIG. 2C) Transposon sequencing results for reactions with no gRNAs (left, n=4) or with gRNA_4 (n=3), gRNA_8 (n=3), gRNA_12 (n=3), or gRNA_5 (n=3). The baseline random distribution of transposons along the recipient plasmid in each panel with a gRNA is shown in light gray.
To assess the distribution of transposon insertions around the target pGT-B1 plasmid, transposon sequencing was performed on transposition products resulting from three GFP-targeting gRNAs (gRNA_4, gRNA_8, and gRNA_12), a non-targeting gRNA, and no gRNA (FIG. 2C and FIG. 8). […]

B1: pGT-B1 position 5999 T/A-rich insertion site (dsDNA)
DNA 1: GCGAATTTTAAAATTCGC
DNA 2: GCGAATTTTAAAATTCGC
  binding result: binds

— patent publication US20220243184, “ENGINEERED Cas-Transposon SYSTEM FOR PROGRAMMABLE AND SITE-DIRECTED DNA TRANSPOSITIONS” (THE TRUSTEES OF COLUMBIA UNIVERSITY IN THE CITY OF NEW YORK, published 2022)
